This passage reports Kd results from PMC10617564, “Efficient clathrin-mediated entry of enteric adenoviruses in human duodenal cells” (Journal of Virology, 2023).

What is called Kd is the constant that tells how readily two partners part at equilibrium. Lower therefore signals higher affinity.

The target of this assay is CAR (CXADR Fc chimera full-length extracellular D1D2 domain) (UniProt P78310). Briefly: SPR; Biacore T-200; CAR-Fc amine-coupled to a CM5 chip (~1,500 response units); analytes in twofold dilutions 2000 to 7.81125 nM, injected 120 s at 30 uL/min; 25°C; 10 mM phosphate buffer pH 7.4, 140 mM NaCl, 0.27 mM KCl, 0.05% Tween20; regeneration with 10 mM glycine pH 1.5; three independent experiments. In general terms: SPR reads the build-up and loss of mass on a sensor chip optically.
Chain of CAR (CXADR Fc chimera full-length extracellular D1D2 domain) (P78310 20-237, change not shown): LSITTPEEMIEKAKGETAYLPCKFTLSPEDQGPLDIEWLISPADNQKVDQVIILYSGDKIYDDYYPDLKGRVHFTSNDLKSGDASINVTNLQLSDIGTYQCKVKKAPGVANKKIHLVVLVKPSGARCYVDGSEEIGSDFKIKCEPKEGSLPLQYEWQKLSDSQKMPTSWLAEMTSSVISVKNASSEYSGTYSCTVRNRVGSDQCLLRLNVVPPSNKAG

Chain of HAdV-F41 long fiber knob (domain or fragment) (P14267 363-562 limits assumed): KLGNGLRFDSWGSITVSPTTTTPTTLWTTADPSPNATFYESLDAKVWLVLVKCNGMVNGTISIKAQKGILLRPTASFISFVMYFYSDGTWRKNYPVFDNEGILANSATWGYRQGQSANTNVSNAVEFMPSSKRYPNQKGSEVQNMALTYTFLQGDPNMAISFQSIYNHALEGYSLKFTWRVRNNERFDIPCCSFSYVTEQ
Chain of HAdV-F40 long fiber knob (domain or fragment) (P18047 348-547 limits assumed): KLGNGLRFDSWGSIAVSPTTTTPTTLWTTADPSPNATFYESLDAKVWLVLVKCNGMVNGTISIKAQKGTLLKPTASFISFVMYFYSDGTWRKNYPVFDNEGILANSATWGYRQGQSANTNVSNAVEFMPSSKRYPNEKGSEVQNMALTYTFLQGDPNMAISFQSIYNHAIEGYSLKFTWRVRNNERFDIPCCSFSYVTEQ

In turn, “HAdV-F40 long fiber knob (domain or fragment)” had a Kd of 0.0255 µM. This lies in the double-digit nanomolar range. Regarding “HAdV-F41 long fiber knob (domain or fragment)”, the Kd is 0.00634 µM. This Kd lies about 4-fold lower than the previous one.
